Results taken from patent publication US11666671B2, “Spatial mapping of kidney functions” (Northwestern University, priority 2018, dated 2023).
Like-named read-outs stand apart in the source and are kept apart here.

Experiments:
FcRn = test: Binding of Fc to FcRn on renal tubular epithelial cells; assay type: in vivo; conditions: surface of renal tubular epithelial cells
[1] = Renal histology (immunofluorescence) and renal tubular handling of the carriers (FIGS. 3, 4); conditions: ^99mTc/HYNIC-labelled carriers
[2] = not given; remark: listed apart in the source
[3] = not given; remark: listed apart in the source
[4] = mouse, in vivo
[5] = Conventional renal scintigraphy (renogram) with radionuclide-bound tracers (FIG. 1)
Description: FIG. 1 is a low-resolution renogram of a patient using conventional radionuclide-bound tracer ^99mTc DTPA with renal scintigraphy.

[6] = steady state, from 45 min onward, FIG. 8A

In the case of “Fc: imaging agent using ^99mTc as detection moiety, HYNIC as chelation moiety, and Fc alone as carrier moiety [reference compound]”, the FcRn binding (FcRn) was “binds the FcRn on the surface of renal tubular epithelial cells” and the “renal tubular handling / fate of the carrier” value [1] was “reenters blood circulation via peritubular capillaries”.

In the case of “^99mTc/HYNIC/PBT-Fc: ^99mTc as the detection moiety, HYNIC as the chelation moiety, and PBT-Fc as the carrier moiety”, the “renal fate / urinary excretion of the agent” value (after administration to test subjects) was “fixed (e.g., permanently) at the basement membrane of the downstream renal tubules without being further excreted into urine”, the “time after which radio signals accumulated in the kidney reach the plateau” value (glomerular filtration phase, tail vein injection) was 10 to 20 min and the “renal tubular handling / fate of the carrier” value [1] was ““trapped” in the tubular basement membrane (TBM)”. For the same compound, the “time the agent stayed in the subject's system for steady state imaging” value ([2]; FIG. 7) was 60 min, the “renal fate / urinary excretion of the agent” value ([2]; FIG. 7, steady state) was “concentrated in the kidney without being excreted into urine” and the “kidney retention compared with Fc-alone and Duramycin agents” value ([2]; FIGS. 6 and 7) was “accumulate and remain the kidneys of the subjects for much longer than that of the Fc-alone and Duramycin agents”. For the same compound, the “intrarenal localization (section view)” value ([3]; FIG. 8B) was “localization of PBT-Fc to the kidney cortex”, the “^99mTc signal in liver and bladder” value [3, 6] was “low levels of signal accumulation in the liver and the bladder” and the “^99mTc signal in the kidney” value [3, 6] was “concentrated in the kidney”.

For “PBT-Fc carrier moiety: N-terminal His6 tag, PBT from human VEGFA (amino acids 131-163), and Fc of human IgG1, expressed in E. coli”, the “distribution of the probe in renal histology (immunofluorescence)” value [4] was “mainly in the tubular basement membrane”.

For `O=C([O-])CN(CCN(CC(=O)[O-])CC(=O)[O-])CCN(CC(=O)[O-])CC(=O)[O-].[99Tc+4]` [^99mTc DTPA, ^99mTc Diethylenetriamine-Pentaacetic Acid], the “time to wash out of the system” value [5] was at most 20 min.
